T1: Recombinant IL13RA2-His protein (Sino Biological, Cat #10350-H08H) (human, UniProt Q14627 27-343)
T1 construct: Bought protein; also called human IL13RA2 his-tag protein; IL13AR2; not shown: His tag
T1 sequence (looked up): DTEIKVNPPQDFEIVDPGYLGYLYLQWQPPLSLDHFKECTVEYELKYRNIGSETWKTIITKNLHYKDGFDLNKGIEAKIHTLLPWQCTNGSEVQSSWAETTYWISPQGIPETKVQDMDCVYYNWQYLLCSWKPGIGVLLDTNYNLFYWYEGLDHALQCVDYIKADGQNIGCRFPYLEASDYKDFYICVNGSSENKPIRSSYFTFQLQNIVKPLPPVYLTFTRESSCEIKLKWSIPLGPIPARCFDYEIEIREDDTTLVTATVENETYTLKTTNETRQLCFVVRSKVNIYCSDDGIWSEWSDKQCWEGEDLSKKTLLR

T2: recombinant human IL13RA2 (human, UniProt Q14627 27-343)
T2 construct: Coating antigen of the phage ELISA screen; The immunogen was ACRO Cat. No. IL2-H52H5; also called antigen proteins
T2 sequence (looked up): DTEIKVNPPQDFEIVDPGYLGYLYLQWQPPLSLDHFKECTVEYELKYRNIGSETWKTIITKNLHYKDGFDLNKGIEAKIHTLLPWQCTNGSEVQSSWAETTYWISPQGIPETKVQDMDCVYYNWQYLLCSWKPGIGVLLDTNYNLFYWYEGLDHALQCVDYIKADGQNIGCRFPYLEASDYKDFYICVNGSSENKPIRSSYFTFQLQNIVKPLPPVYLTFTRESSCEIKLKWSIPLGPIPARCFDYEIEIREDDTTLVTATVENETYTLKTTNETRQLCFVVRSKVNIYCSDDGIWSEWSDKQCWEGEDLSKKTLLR


What was measured:
[1] = molecular target: IL13RA2 on tumor cell lines (U251MG.Luc, U87MG.Luc, U87MG.Luc clone2, U138MG.Luc, A375.Luc) (UniProt Q14627); experiment: cell-based or functional assay
[2] = molecular target: T1, Recombinant IL13RA2-His protein (Sino …); experiment: SPR, Biacore 2000; VHH-mIgG1Fc coupled to CM5 chip, IL13RA2-His injected; 1:1 Langmuir fit
Method: The affinity of each VHH-mIgG1Fc for IL13AR2 was determined by SPR using a BIACORE® 2000 analytical system (GE Healthcare). Briefly, each VHH-mIgG1Fc protein was covalently coupled to a CM5(s) sensor chip using 4 μg/ml VHH-mIgG1Fc. Recombinant IL13RA2-His protein (Sino Biological, Cat #10350-H08H) was serially diluted in running buffer (10 mM HEPES, 150 mM NaCl, 3 mM EDTA, 0.05% Tween-20, pH 7.4) and injected at a flowrate of 10 μl/min followed by dissociation. The association and dissociation rate constants were determined using the BIACORE® 2000 evaluation software version 3.0 (Langmuir binding, local fit, 1:1 binding model).

[3] = molecular target: T2, recombinant human IL13RA2; experiment: phage ELISA on plates coated with recombinant human IL13RA2, anti-M13-HRP, A450
Method: Individual output phage clones were grown in 96-deep-well plates and rescued by M13KO7 helper phage overnight. To identify clones that bound to antigen proteins, 96-well ELISA microtiter plates were coated with recombinant human IL13RA2 in coating buffer overnight at 4° C., and the plates were then blocked with blocking buffer. After blocking, approximately 50 µL per well of phage supernatant from overnight cell culture was added to the plates for 1.5-hour incubation at 4° C. The plates were washed four times, and the HRP-conjugated anti-M13 monoclonal antibody was added to the plates for 45-minute incubation at 4° C. The plates were again washed five times and substrate solution was added to the wells for color developing. Absorbance at 450 nm was measured for each well.

Row | Molecule | Kd [2] | koff [2] | kon [2] | binding result [3] | also measured
1 | IL13-E13Y CAR (from UniProt P35225 35-146) |  |  |  |  | IFNγ release level, CAR-T co-cultured with U87MG.Luc (UnT 80) [1]: 580 pg/mL; IFNγ release level, CAR-T co-cultured with U138MG.Luc (UnT 70) [1]: 252 pg/mL; IFNγ release level, CAR-T co-cultured with U251MG.Luc (UnT 196) [1]: 4360 pg/mL
2 | VHH1330-mIgG1Fc (Fc fusion, also called VHH-mIgG1Fc chimeric antibody; single VHH chimeric anti-IL13RA2 antibody) QVQLVESGGGLVQPGGSLTLSCAASGYRISLYKMGWFRQDPGKQREGVAAVDRNGRTIYADSVKGRFTIYQDNAKNTLDLQMNSLKPEDTAMYYCAADLWRIGSPASLSPTDYGDWGQGTQVTVSSVPRDCGCKPCICTVPEVSSVFIFPPKPKDVLTITLTPKVTCVVVDISKDDPEVQFSWFVDDVEVHTAQTQPREEQFNSTFRSVSELPIMHQDWLNGKEFKCRVNSAAFPAPIEKTISKTKGRPKAPQVYTIPPPKEQMAKDKVSLTCMITDFFPEDITVEWQWNGQPAENYKNTQPIMNTNGSYFVYSKLNVQKSNWEAGNTFTCSVLHEGLHNHHTEKSLSHSPGK | 60 nM | 0.0022 s⁻¹ | 37000 M⁻¹ s⁻¹ |  | 
3 | VHH1339 (VHH) VHH: EVQLVESGGGSVQAGGSLKLSCAASGDIFSMCGMGWYRQAPGKQREMVSRISPRGTAIYPDSLKGRFTVSRDNAKNTLYLQMNSLNTEDTAVYYCAAGGDSASRTPHCRSLNWGQGTQVTVSS |  |  |  | binds | 
4 | VHH1343 (VHH) VHH: QVKLEESGGGSVQAGGSLKLSCAASGYNFSKCGMGWFRRALREERELVAEISNDGTTTYDDSVKGRFTISRDNVKNTVYLQMNNLKTEDTAVYYCASRNPCGLLWGQGTQVTVSS |  |  |  | binds | 
5 | VHH1353 (VHH) VHH: EVQLVESGGGSVQAGGSLRLSCAASGYTSSTNCMGWFRQAPGKEREGVASIRGTGGSTYYADSVKGRFTISRDDGKNTLYLQMNSLKPEDTAMYYCAAATGTSFSEARCVTAPPYKYPYWGQGTQVTVSS |  |  |  | binds | 
6 | VHH1354 (VHH) VHH: AVQLVDSGGGLVQPGGSLRLSCAASGFTFSTYGMSWVRQPPGKGLEWVSGISPGGDHTTYADSVKGRFTISRDNAKNTLYLQLSSLKTEDTAMYYCTTVPGRSRYGNYNPRGQGTQVTVSS |  |  |  | binds | 
7 | VHH1366 (VHH) VHH: QVKLEESGGGSVEAGGSLKLSCAGFGDMFSSCGMGWYRQAPGKEREMVSRISPRGTSITIDSVRGRFTISRDNAKNTLALEMNSLKIEDTAVYYCAAGGDSASRTPRCRSLNWGQGTQVTVSS |  |  |  | binds | 
8 | VHH2110 (VHH) VHH: QVKLEESGGGSVQAGGSLRLSCAASGIPTRTLFMGWFRQAPGKEREEVARISDNGNTGYADFVKGRFTISKDNSKNTLYLQMSSLKPDDTAMYYCSARRASYSATVLWGQGTQVTVSS |  |  |  | binds | 
9 | VHH1345-mIgG1Fc (Fc fusion, also called VHH-mIgG1Fc chimeric antibody; single VHH chimeric anti-IL13RA2 antibody) AVQLVDSGGGSAQVGGSLKLSCTASGYIFSSCGMGWYRQAPGKKREFVTSVSKYGTTTYPDSVKGRFTISLDNAKNTAYLQMNSLKIEDTAVYYCTTLASRGTTCPASVYSGPGTQVTVSSVPRDCGCKPCICTVPEVSSVFIFPPKPKDVLTITLTPKVTCVVVDISKDDPEVQFSWFVDDVEVHTAQTQPREEQFNSTFRSVSELPIMHQDWLNGKEFKCRVNSAAFPAPIEKTISKTKGRPKAPQVYTIPPPKEQMAKDKVSLTCMITDFFPEDITVEWQWNGQPAENYKNTQPIMNTNGSYFVYSKLNVQKSNWEAGNTFTCSVLHEGLHNHHTEKSLSHSPGK | 14 nM | 0.00045 s⁻¹ | 33000 M⁻¹ s⁻¹ |  | 
10 | VHH1330-(GGGGS)2-VHH1345-mIgG1Fc (Fc fusion, Two VHH domains joined by (GGGGS)2 and fused to mouse IgG1 Fc; also called bi-VHH-mIgG1Fc; bi-VHH chimeric anti-IL13RA2 antibody) QVQLVESGGGLVQPGGSLTLSCAASGYRISLYKMGWFRQDPGKQREGVAAVDRNGRTIYADSVKGRFTIYQDNAKNTLDLQMNSLKPEDTAMYYCAADLWRIGSPASLSPTDYGDWGQGTQVTVSSGGGGSGGGGSAVQLVDSGGGSAQVGGSLKLSCTASGYIFSSCGMGWYRQAPGKKREFVTSVSKYGTTTYPDSVKGRFTISLDNAKNTAYLQMNSLKIEDTAVYYCTTLASRGTTCPASVYSGPGTQVTVSSVPRDCGCKPCICTVPEVSSVFIFPPKPKDVLTITLTPKVTCVVVDISKDDPEVQFSWFVDDVEVHTAQTQPREEQFNSTFRSVSELPIMHQDWLNGKEFKCRVNSAAFPAPIEKTISKTKGRPKAPQVYTIPPPKEQMAKDKVSLTCMITDFFPEDITVEWQWNGQPAENYKNTQPIMNTNGSYFVYSKLNVQKSNWEAGNTFTCSVLHEGLHNHHTEKSLSHSPGK | 0.71 nM | 5.4e-05 s⁻¹ | 75000 M⁻¹ s⁻¹ |  | 

Source: patent publication US20260151429A1 (NANJING LEGEND BIOTECH, published 2026)
